This experiment deals with T1, FcγRIIIA α + γ (WT) on transfected COS-1 cells (human; mouse, UniProt P08637 17-254; P20491 19-86).
T1 construct: whole, on cells; also called FcγRIIIA-γγ; FcγRIIIA α and wild type γ
The experiment can be described thus: flow cytometry, COS-1 cells cotransfected with α and γ.

T1 sequence (P08637 17-254, chain 1 of 2): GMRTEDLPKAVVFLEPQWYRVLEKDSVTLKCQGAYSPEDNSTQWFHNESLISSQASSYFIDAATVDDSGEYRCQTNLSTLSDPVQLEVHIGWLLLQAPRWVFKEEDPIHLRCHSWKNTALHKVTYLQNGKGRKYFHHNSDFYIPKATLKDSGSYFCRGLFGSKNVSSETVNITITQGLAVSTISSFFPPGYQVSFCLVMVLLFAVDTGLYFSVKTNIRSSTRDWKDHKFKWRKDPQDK
T1 sequence (P20491 19-86, chain 2 of 2): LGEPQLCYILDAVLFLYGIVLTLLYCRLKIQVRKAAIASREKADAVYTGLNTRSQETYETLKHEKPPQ

B1: anti-FcγRIII mAb, 3G8 (antibody)
chain 1: QVTLKESGPGILQPSQTLSLTCSFSGFSLRTSGMGVGWIRQPSGKGLEWLAHIWWDDDKRYNPALKSRLTISKDTSSNQVFLKIASVDTADTATYYCAQINPAWFAYWGQGTLVTVS
chain 2: DIVLTQSPASLAVSLGQRATISCKASQSVDFDGDSFMNWYQQKPGQPPKLLIYTTSNLESGIPARFSASGSGTDFTLNIHPVEEEDTATYYCQQSNEDPYTFGGGTKLELK
As to B1, the “fold increase of mean fluorescence intensity over IgG isotype control or mock-transfected cells” value was found to be 15 fold.

These data come from patent US7148014 (University of Pennsylvania, dated 2006).
